Test results from IntAct's records for PubMed 16709668.

B1: "Peptide-N(4)-(N-acetyl-beta-glucosaminyl)asparagine amidase" (Mus musculus), Q9JI78 (parent)
chain: MASATLGSSSSSASPAVAELCQNTPETFLEASKLLLTYADNILRNPSDEKYRSIRIGNTAFSTRLLPVRGAVECLFEMGFEEGETHLIFPKKASVEQLQKIRDLIAIERSSRLDGSSKKVQFSQHPAAAKLPLEQSEDPAGLIRHSGNQTGQLPSLPSAPMVVGDSTILKVLQSNIQHVQLYENPVLQEKALTCIPVSELKRKAQEKLFRARKLDKGTNVSDEDFLLLELLHWFKEEFFRWVNNIVCSKCGGETRSRDEALLPNDDELKWGAKNVENHYCDACQLSNRFPRYNNPEKLLETRCGRCGEWANCFTLCCRALGFEARYVWDYTDHVWTEVYSPSQQRWLHCDACEDVCDKPLLYEIGWGKKLSYIIAFSKDEVVDVTWRYSCKHDEVMSRRTKVKEELLRETINGLNKQRQLSLSESRRKELLQRIIVELVEFISPKTPRPGELGGRVSGSLAWRVARGETGLERKEILFIPSENEKISKQFHLRYDIVRDRYIRVSDNNINISGWENGVWKMESIFRKVEKDWNMVYLARKEGSSFAYISWKFECGSAGLKVDTVSIRTSSQSFESGSVRWKLRSETAQVNLLGDKNLRSYNDFSGATEVTLEAELSRGDGDVAWQHTQLFRQSLNDSGENGLEIIITFNDL

Variants of: B1
Details: with tera_mouse Vcp

Variant | effect of a mutation on the interaction
N41P | disrupting interaction
G79A;F80A | disrupting interaction
